From article PMC3859194

Assays:
[1] = target: 6His-PopZ P146A (Caulobacter crescentus); test: SEC-MALLS
[2] = target: 6His-PopZΔ172–177 (Caulobacter crescentus); test: SEC-MALLS

Substance	stoichiometry N [1]	stoichiometry N [2]
6His-PopZ P146A (natural protein)	3	–
6His-PopZΔ172–177 (domain or fragment)	–	6
